Biological target: activin-like kinase receptor 3 (ALK3) (human) (UniProt P36894)
Experiment: cell-based or functional assay

Sequence of activin-like kinase receptor 3 (ALK3) (human) (P36894 24-532): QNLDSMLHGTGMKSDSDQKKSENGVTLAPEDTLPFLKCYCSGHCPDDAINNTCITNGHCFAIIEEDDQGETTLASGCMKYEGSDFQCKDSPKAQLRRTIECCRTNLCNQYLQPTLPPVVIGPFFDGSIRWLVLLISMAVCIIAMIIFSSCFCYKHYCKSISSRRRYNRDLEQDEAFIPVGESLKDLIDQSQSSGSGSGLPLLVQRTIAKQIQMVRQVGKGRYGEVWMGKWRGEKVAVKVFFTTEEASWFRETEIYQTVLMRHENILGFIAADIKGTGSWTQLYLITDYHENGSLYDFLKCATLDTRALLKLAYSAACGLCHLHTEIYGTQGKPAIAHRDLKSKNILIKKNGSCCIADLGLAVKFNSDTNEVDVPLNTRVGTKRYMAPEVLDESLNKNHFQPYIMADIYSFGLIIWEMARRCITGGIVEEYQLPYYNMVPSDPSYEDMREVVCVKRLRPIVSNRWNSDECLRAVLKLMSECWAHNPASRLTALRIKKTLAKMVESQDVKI
Sequence of Bone morphogenetic protein 7 (BMP-7) (P18075 293-431 limits assumed): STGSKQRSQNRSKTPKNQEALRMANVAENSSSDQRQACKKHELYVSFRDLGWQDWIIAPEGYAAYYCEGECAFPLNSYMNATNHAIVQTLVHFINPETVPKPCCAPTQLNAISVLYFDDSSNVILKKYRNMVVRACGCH

**Q.** What does the source list for “Bone morphogenetic protein 7 (BMP-7) (from UniProt P18075 293-431) (ligand)”?
**A.** BMP-7-mediated induction of C-peptide compared to t=0 (n=4), BMP-7 alone: 314 fold; BMP-7-mediated induction of C-peptide compared to t=0 (n=4), in the presence of dorsomorphin (inhibitor of SMAD1/5/8 phosphorylation): 108 fold; C-peptide induction on hNEPT, fold vs. t=0 (n=4, comparison with THR-123): 261 fold; C-peptide production on hNEPT, fold vs. t=0 (n=6, comparison with BMP-4): 156 fold; insulin expression by qRT-PCR in ALK3+-sorted cells vs. non-BMP-7 treated controls: 1000 fold

**Q.** THR-123 (peptide) was tested. Which C-peptide induction on hNEPT, fold vs. t=0 (n=4) did it give?
**A.** The C-peptide induction on hNEPT, fold vs. t=0 (n=4) was 318 fold.

**Q.** For “Bone morphogenetic protein 4 (BMP-4) (from UniProt P12644 293-408) (ligand)”, which C-peptide production on hNEPT, fold vs. t=0 (n=6) is on record?
**A.** The C-peptide production on hNEPT, fold vs. t=0 (n=6) was 198 fold.

From US20180155692A1
